Measured values: US20250152724A1, “ANTIBODY CONJUGATES SPECIFIC FOR MUCIN-1 AND METHODS OF USE THEREOF” (R.P. Scherer Technologies, LLC, priority 2022, published 2025)
Positions count from the first letter of the chain named. Each block holds one molecule with its values, some of them ahead of it.

Columns and labels:
[1] = analytical size exclusion chromatography (SEC) to determine aggregation; format: physicochemical; conditions: unconjugated antibodies; mobile phase 300 mM NaCl, 25 mM sodium phosphate pH 6.8
Protocol: SEC HPLC: To determine aggregation, samples were analyzed using analytical size exclusion chromatography (SEC; Tosoh #08541) with a mobile phase of 300 mM NaCl, 25 mM sodium phosphate pH 6.8.
Methods. Antibodies (15 mg/mL) bearing one aldehyde tag were conjugated to linker-payloads at 1.1 mM, respectively. Reactions proceeded for 72 h at 37° C. in 20 mM sodium citrate, 50 mM NaCl pH 5.5 (20/50 buffer) containing 0.85-2.5% DMA. After conjugation, free drug was removed using a 30 kD MWCO 0.5 mL Amicon spin concentrator. Samples were added to the spin concentrator, centrifuged at 15,000×g for 7 min, then diluted with 450 μL 20 mM sodium citrate, 50 mM NaCl pH 5.5 and centrifuged again. The process was repeated 10 times. To determine the DAR of the final product, ADCs were examined by analytical chromatography using hydrophobic interaction (HIC) (Tosoh #14947) or PLRP-RP (Agilent PL1912-1802 1000A, 8 μm, 50×2.1 mm) columns. HIC analysis used mobile phase A: 1.5 M ammonium sulfate, 25 mM sodium phosphate pH 7.0, and mobile phase B: 25% isopropanol, 18.75 mM sodium phosphate pH 7.0. […] To determine aggregation, samples were analyzed using analytical size exclusion chromatography (SEC; Tosoh #08541) with a mobile phase of 300 mM NaCl, 25 mM sodium phosphate pH 6.8 with 5% isopropanol.

[2] = biological target: recombinant 20mer MUC1 glycosylated-biotin (Homo sapiens, UniProt P15941); assay: MUC1 ELISA; format: binding; conditions: FIGS. 2A-2C
Chain of recombinant 20mer MUC1 glycosylated-biotin (P15941 138-157): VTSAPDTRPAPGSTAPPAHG
Protocol: (§1) MUC1 ELISA: Antigens were coated directly on a Streptavidin (Pierce, 15500) or Maxisorp (VWR, 62409-024) 96-well plate at 100 ng/well in PBS. Coated plates were incubated at 4° C. overnight. The plates were blocked with casein blocking buffer (Thermo Fisher, 37528) and washed with PBS-Tween-20. Antibodies were serially diluted in PBS, added to the coated wells and incubated for 1 h at room temperature with shaking. To test for stickiness, antibodies were also added to uncoated, blocked wells. Peroxidase (HRP)-conjugated anti-Fc secondary (Jackson Immunoresearch, #109-035-098) was used for detection, followed by a […] substrate (Thermo Fisher, 34028) and H2SO4 quench. Absorbance was read at 450 nm on a Molecular Devices plate reader.
(§2) 20mer MUC1 glycosylated-biotin refers to a peptide comprising the sequence […] (SEQ ID NO:26) with Tn (GalNac) antigen or sialyl Tn (Neu5Acα2-6GalNAc) antigen modifications on some of the S/T residues, where biotin in conjugated to the N-terminus. 60mer MUC1 non-glycosylated-biotin refers to a peptide comprising the sequence […] (SEQ ID NO:27), where biotin in conjugated to the N-terminus. Decoy peptide refers to a peptide comprising the sequence […] (SEQ ID NO:28), with Tn (GalNac) antigen or sialyl Tn (Neu5Acα2-6GalNAc) antigen modifications on some of the S/T residues.

[3] = biological target: recombinant 60mer MUC1 non-glycosylated-biotin (Homo sapiens, UniProt P15941); assay: MUC1 ELISA; format: binding; conditions: FIGS. 2A-2C
Chain of recombinant 60mer MUC1 non-glycosylated-biotin (P15941 138-197): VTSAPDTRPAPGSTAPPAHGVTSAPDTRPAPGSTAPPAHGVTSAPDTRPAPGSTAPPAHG
Protocol: as §1, §2

[4] = test system: decoy peptide; assay: MUC1 ELISA; format: binding; conditions: FIGS. 2A-2C
Chain of decoy peptide (as listed by the source): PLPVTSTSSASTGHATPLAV
Protocol: as §1, §2

- binding to recombinant 20mer MUC1 glycosylated-biotin as assessed by ELISA [2]: bind
- binding to recombinant 60mer MUC1 non-glycosylated-biotin as assessed by ELISA [3]: not
- binding to decoy peptide as assessed by ELISA [4]: not
B1: MUC1 H02: anti-MUC1 monoclonal antibody; VH SEQ ID NO:1, VL SEQ ID NO:4 (antibody, V domains shown)
VH: EVQLVQSGAEVKKPGATVKISCKVSGYTFTDHTMHWIKQRPGKGLEWMGYFYPRDDSTNYNEKFKGRVTLTADKSTDTAYMELSSLRSEDTAVYYCARGLRYALDYWGQGTLVTVSS
VL: EIVLTQSPATLSLSPGERATLSCRASSSVSSSYLYWYQQKPGQAPRLWIIGTSNLASGVPARFSGSGSGTDYTLTISSLEPEDAAVYYCHQYSWSPPTFGQGTKLEIK
- monomeric as determined by SEC [1]: more than 98%

- binding to recombinant 20mer MUC1 glycosylated-biotin as assessed by ELISA [2]: bind
- binding to recombinant 60mer MUC1 non-glycosylated-biotin as assessed by ELISA [3]: not
- binding to decoy peptide as assessed by ELISA [4]: not
B2: MUC1 G12: anti-MUC1 monoclonal antibody; VH SEQ ID NO:1, VL SEQ ID NO:3 (antibody, V domains shown)
VH: B1 VH
VL: B1 VL with S30G, Y33N, I50Y, G51R, T52S, S53T, N54K, S93R

- binding to recombinant 20mer MUC1 glycosylated-biotin as assessed by ELISA [2]: bind
- binding to recombinant 60mer MUC1 non-glycosylated-biotin as assessed by ELISA [3]: not
- binding to decoy peptide as assessed by ELISA [4]: not
B3: MUC1 gB06: anti-MUC1 monoclonal antibody; VH SEQ ID NO:1, VL SEQ ID NO:2 (antibody, V domains shown)
VH: B1 VH
VL: B1 VL with I50Y, S93A
